Columns and labels:
[1] = target: T1, L1CAM on the human ovarian cancer cell line SKOV3 (human, UniProt P32004 20-1257); assay: flow cytometry on SKOV3 cells, anti-human IgG Fc-FITC
T1 construct: whole, on cells; The cells express L1CAM but not preS1; also called SKOV3 cells

[2] = target: T2, GST-preS1(1-56)-strep of HBV genotype A (hepatitis B virus genotype A, UniProt P08515 1-218 = GST); assay: indirect ELISA, GST-preS1(1-56)-strep coated, serially diluted AbS0, anti-human IgG Fc-HRP
T2 construct: Expressed in E. coli; also called recombinant preS1 of HBV genotype A; preS1 antigen of genotype A; not shown: strep tag
T2 sequence (P08515 whole entry): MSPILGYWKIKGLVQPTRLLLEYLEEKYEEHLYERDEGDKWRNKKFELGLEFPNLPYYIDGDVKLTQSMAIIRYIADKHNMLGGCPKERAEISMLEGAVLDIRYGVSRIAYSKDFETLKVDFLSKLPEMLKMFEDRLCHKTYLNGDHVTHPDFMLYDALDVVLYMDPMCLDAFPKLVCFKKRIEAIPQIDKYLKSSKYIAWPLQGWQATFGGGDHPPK

[3] = target: T3, GST-preS1(1-56)-strep of HBV genotype B (hepatitis B virus genotype B, UniProt P08515 1-218 = GST); assay: as above
T3 construct: Expressed in E. coli; also called recombinant preS1 of genotype B; not shown: strep tag
T3 sequence (P08515 whole entry): as above

[4] = target: T4, GST-preS1(1-56)-strep of HBV genotype C (hepatitis B virus genotype C, UniProt P08515 1-218 = GST); assay: as above
T4 construct: Expressed in E. coli; also called wild type preS1 antigen; recombinant preS1 of genotype C; not shown: strep tag
T4 sequence (P08515 whole entry): as above

[5] = target: T5, GST-preS1(1-56)-strep of HBV genotype D (hepatitis B virus genotype D, UniProt P08515 1-218 = GST); assay: as above
T5 construct: Expressed in E. coli; also called recombinant preS1 of genotype D; not shown: strep tag
T5 sequence (P08515 whole entry): as above

[6] = target: T2, GST-preS1(1-56)-strep of HBV genotype A; assay: indirect ELISA, genotype A GST-preS1(1-56)-strep (NPLGFFP) coated, serially diluted antibody
[7] = target: T2, GST-preS1(1-56)-strep of HBV genotype A; assay: BLI (Octet RED384), antibody captured on anti-human Fc tips, antigen 25-1.5625 nM in solution, 1:1 model
[8] = target: T4, GST-preS1(1-56)-strep of HBV genotype C; assay: indirect ELISA, genotype C GST-preS1(1-56)-strep coated (100 ng), antibody from culture supernatant, anti-human IgG Fc-HRP
BSA = target: T6, BSA (Bos taurus, UniProt P02769); assay: indirect ELISA of monoclonal Fab phage on coated antigen, anti-M13-HRP
T6 construct: control antigen of the phage ELISA; also called bovine serum albumin
T6 sequence (P02769 25-607 limits assumed): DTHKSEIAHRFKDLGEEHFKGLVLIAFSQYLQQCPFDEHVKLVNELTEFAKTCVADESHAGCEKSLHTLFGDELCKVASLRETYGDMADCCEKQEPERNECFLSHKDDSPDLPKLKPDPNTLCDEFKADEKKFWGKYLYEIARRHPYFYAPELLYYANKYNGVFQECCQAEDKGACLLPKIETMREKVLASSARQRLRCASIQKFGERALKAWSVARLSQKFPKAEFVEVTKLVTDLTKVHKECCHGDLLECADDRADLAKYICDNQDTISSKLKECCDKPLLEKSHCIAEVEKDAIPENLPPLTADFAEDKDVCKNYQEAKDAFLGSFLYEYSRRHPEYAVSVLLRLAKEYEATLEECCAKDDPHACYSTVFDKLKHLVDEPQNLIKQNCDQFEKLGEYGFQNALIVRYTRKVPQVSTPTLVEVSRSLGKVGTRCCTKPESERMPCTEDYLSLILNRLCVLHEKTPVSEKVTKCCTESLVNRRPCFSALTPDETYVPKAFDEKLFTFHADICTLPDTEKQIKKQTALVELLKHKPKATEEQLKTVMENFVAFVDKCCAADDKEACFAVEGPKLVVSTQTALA

T1 sequence (P32004 20-1257): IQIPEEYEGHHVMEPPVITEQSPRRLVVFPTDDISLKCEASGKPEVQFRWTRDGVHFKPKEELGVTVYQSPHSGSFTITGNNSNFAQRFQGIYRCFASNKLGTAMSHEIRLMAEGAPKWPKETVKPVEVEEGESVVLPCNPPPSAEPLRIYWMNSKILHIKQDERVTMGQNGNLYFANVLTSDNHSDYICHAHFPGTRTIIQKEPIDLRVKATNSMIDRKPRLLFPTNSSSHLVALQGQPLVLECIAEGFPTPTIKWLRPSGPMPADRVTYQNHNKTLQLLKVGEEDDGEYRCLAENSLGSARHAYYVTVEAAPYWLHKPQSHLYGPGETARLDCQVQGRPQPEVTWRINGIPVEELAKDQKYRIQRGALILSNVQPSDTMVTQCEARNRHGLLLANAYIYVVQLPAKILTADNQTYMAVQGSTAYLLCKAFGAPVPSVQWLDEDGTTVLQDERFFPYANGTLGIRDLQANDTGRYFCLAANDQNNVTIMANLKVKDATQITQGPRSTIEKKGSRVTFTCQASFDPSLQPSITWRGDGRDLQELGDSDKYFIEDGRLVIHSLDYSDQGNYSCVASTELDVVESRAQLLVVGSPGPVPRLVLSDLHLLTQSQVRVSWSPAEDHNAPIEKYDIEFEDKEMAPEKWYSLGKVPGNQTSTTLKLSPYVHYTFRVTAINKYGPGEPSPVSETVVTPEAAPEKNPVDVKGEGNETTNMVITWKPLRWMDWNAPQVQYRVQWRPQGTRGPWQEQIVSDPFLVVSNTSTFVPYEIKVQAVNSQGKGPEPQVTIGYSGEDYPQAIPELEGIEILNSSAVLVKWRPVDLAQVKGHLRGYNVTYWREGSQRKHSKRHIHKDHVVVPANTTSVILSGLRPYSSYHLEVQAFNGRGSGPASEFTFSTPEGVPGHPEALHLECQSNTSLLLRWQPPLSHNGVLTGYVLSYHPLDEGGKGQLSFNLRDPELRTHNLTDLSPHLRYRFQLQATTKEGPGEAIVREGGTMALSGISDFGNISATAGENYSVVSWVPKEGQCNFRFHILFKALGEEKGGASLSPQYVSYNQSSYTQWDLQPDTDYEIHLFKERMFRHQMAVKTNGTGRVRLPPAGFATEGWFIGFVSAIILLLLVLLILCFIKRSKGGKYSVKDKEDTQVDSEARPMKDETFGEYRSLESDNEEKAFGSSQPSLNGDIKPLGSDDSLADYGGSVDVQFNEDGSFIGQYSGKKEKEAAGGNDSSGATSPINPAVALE

Binder | binding result [1] | EC50 (read off the curve) [2] [µg/mL] | EC50 (read off the curve) [3] [µg/mL] | EC50 (read off the curve) [4] [µg/mL] | EC50 (read off the curve) [5] [µg/mL] | EC50 (read off the curve) [6] [µg/mL] | Kd [7] [nM] | koff [7] [s⁻¹] | kon [7] [M⁻¹ s⁻¹] | EC50 (read off the curve) [8] [µg/mL] | binding result (BSA)
AbS0 antibody (AbS0 Fab converted into human IgG1) (antibody, V domains shown, also called AbS0 mAb; wild type AbS0) VH: EVQLVESGGGLVQPGGSLRLSCAASGFTFSTYAMSWVRQAPGKGLEWVSSISQSGGYTNYADSVKGRFTISRDNSKNTLYLQMNSLRAEDTAVYYCAKVIYASLDYWGQGTLVTVSS VL: DIQMTQSPSSLSASVGDRVTITCRASQSIASYLNWYQQKPGKAPKLLIYATSRLQSGVPSRFSGSGSGTDFTLTISSLQPEDFATYYCQQSYSSPYTFGQGTKVEIK | no binding | ~0.04 | ~0.04 | ~0.04 | ~0.04 | ~0.06 | 0.5 | 0.000194 | 392000 | ~0.003 | 
AbS0 Fab phage (Fab, V domains shown) VH: EVQLVESGGGLVQPGGSLRLSCAASGFTFSTYAMSWVRQAPGKGLEWVSSISQSGGYTNYADSVKGRFTISRDNSKNTLYLQMNSLRAEDTAVYYCAKVIYASLDYWGQGTLVTVSS VL: DIQMTQSPSSLSASVGDRVTITCRASQSIASYLNWYQQKPGKAPKLLIYATSRLQSGVPSRFSGSGSGTDFTLTISSLQPEDFATYYCQQSYSSPYTFGQGTKVEIK |  |  |  |  |  |  |  |  |  |  | no binding

Reference: patent US20240254200A1 (APITBIO, published 2024)
